Key:
[1] = molecular target: T1, human FAP on 3T3-huFAP cells (clone 19) (human, UniProt Q12884 1-760); assay: flow cytometry on 3T3-huFAP cells, PE anti-human secondary antibody, median fluorescence intensity
Method: (§1) Binding was assessed by flow cytometry with a FACS Fortessa (BD, Software FACS Diva). Binding curves were obtained using GraphPadPrism6.

[2] = molecular target: T1, human FAP on 3T3-huFAP cells (clone 19); assay: flow cytometry on 3T3-huFAP cells, median fluorescence intensity
Method: as §1

[3] = molecular target: T1, human FAP on 3T3-huFAP cells (clone 19); assay: flow cytometry on 3T3-huFAP cells, median fluorescence intensity (axis MFI APC)
Method: as §1

B1: FAP-CD28SA 2+2 (P1AD4493) (bispecific antibody, human IgG1, kappa, L234A L235A)
CD28(SA) light chain VL-CL RK: not shown
heavy chain CD28(SA) VHCH1 EE - Fc PGLALA - FAP(4B9) VHCL: not shown
FAP(4B9) VLCH1: EIVLTQSPGTLSLSPGERATLSCRASQSVTSSYLAWYQQKPGQAPRLLINVGSRRATGIPDRFSGSGSGTDFTLTISRLEPEDFAVYYCQQGIMLPPTFGQGTKVEIKSSASTKGPSVFPLAPSSKSTSGGTAALGCLVKDYFPEPVTVSWNSGALTSGVHTFPAVLQSSGLYSLSSVVTVPSSSLGTQTYICNVNHKPSNTKVDKKVEPKSCD
notes: bivalent for CD28 and bivalent for FAP; copy numbers follow from the 2+2 format; also called Molecule F; FAP(4B9)-CD28(SA) 2+2
[1]
  EC50 (read off the curve): ~2 nM
[2]
  EC50 (read off the curve): ~2 nM

B2: FAP(4B9)-CD28(SA) 1+2 format (Molecule E) (bispecific antibody, human IgG1, kappa, L234A L235A)
heavy 1: not shown
heavy 2: QVQLVQSGAEVKKPGASVKVSCKASGYTFTSYYIHWVRQAPGQGLEWIGCIYPGNVNTNYNEKFKDRATLTVDTSISTAYMELSRLRSDDTAVYFCTRSHYGLDWNFDVWGQGTTVTVSSASTKGPSVFPLAPSSKSTSGGTAALGCLVKDYFPEPVTVSWNSGALTSGVHTFPAVLQSSGLYSLSSVVTVPSSSLGTQTYICNVNHKPSNTKVDKKVEPKSCDKTHTCPPCPAPEAAGGPSVFLFPPKPKDTLMISRTPEVTCVVVDVSHEDPEVKFNWYVDGVEVHNAKTKPREEQYNSTYRVVSVLTVLHQDWLNGKEYKCKVSNKALGAPIEKTISKAKGQPREPQVCTLPPSRDELTKNQVSLSCAVKGFYPSDIAVEWESNGQPENNYKTTPPVLDSDGSFFLVSKLTVDKSRWQQGNVFSCSVMHEALHNHYTQKSLSLSPGGGGGSGGGGSGGGGSGGGGSEIVLTQSPGTLSLSPGERATLSCRASQSVTSSYLAWYQQKPGQAPRLLINVGSRRATGIPDRFSGSGSGTDFTLTISRLEPEDFAVYYCQQGIMLPPTFGQGTKVEIK
light: not shown
notes: bivalent anti-CD28, monovalent anti-FAP (VH and VL fused to the C-termini of the Fc chains); also called P1AD9011; FAP-CD28 1+2 SA
[3]
  EC50 (read off the curve): ~4 nM

B3: FAP-CD28 CTF (P1AE2236) (bispecific antibody, human IgG1, kappa, L234A L235A)
CD28(SA) light chain: not shown
heavy chain CD28(SA) VHCH - Fc hole - FAP(4B9) VL: QVQLVQSGAEVKKPGASVKVSCKASGYTFTSYYIHWVRQAPGQGLEWIGCIYPGNVNTNYNEKFKDRATLTVDTSISTAYMELSRLRSDDTAVYFCTRSHYGLDWNFDVWGQGTTVTVSSASTKGPSVFPLAPSSKSTSGGTAALGCLVKDYFPEPVTVSWNSGALTSGVHTFPAVLQSSGLYSLSSVVTVPSSSLGTQTYICNVNHKPSNTKVDKKVEPKSCDKTHTCPPCPAPEAAGGPSVFLFPPKPKDTLMISRTPEVTCVVVDVSHEDPEVKFNWYVDGVEVHNAKTKPREEQYNSTYRVVSVLTVLHQDWLNGKEYKCKVSNKALGAPIEKTISKAKGQPREPQVCTLPPSRDELTKNQVSLSCAVKGFYPSDIAVEWESNGQPENNYKTTPPVLDSDGSFFLVSKLTVDKSRWQQGNVFSCSVMHEALHNHYTQKSLSLSPGGGGGSGGGGSGGGGSGGGGSEIVLTQSPGTLSLSPGERATLSCRASQSVTSSYLAWYQQKPGQAPRLLINVGSRRATGIPDRFSGSGSGTDFTLTISRLEPEDFAVYYCQQGIMLPPTFGQGTKVEIK
Fc knob - FAP(4B9) VH: not shown
notes: also called Molecule I; FAP(4B9)-CD28(SA) C-04
[3]
  EC50 (read off the curve): ~2 nM

B4: FAP-CD28 1+4 (bispecific antibody, human IgG1, kappa, L234A L235A)
CD28(SA) light chain: not shown
heavy chain CD28(SA) VHCH-VHCH - Fc knob - FAP(4B9) VH: not shown
heavy chain CD28(SA) VHCH-VHCH - Fc hole - FAP(4B9) VL: QVQLVQSGAEVKKPGASVKVSCKASGYTFTSYYIHWVRQAPGQGLEWIGCIYPGNVNTNYNEKFKDRATLTVDTSISTAYMELSRLRSDDTAVYFCTRSHYGLDWNFDVWGQGTTVTVSSASTKGPSVFPLAPSSKSTSGGTAALGCLVKDYFPEPVTVSWNSGALTSGVHTFPAVLQSSGLYSLSSVVTVPSSSLGTQTYICNVNHKPSNTKVDKKVEPKSCDGGGGSGGGGSQVQLVQSGAEVKKPGASVKVSCKASGYTFTSYYIHWVRQAPGQGLEWIGCIYPGNVNTNYNEKFKDRATLTVDTSISTAYMELSRLRSDDTAVYFCTRSHYGLDWNFDVWGQGTTVTVSSASTKGPSVFPLAPSSKSTSGGTAALGCLVKDYFPEPVTVSWNSGALTSGVHTFPAVLQSSGLYSLSSVVTVPSSSLGTQTYICNVNHKPSNTKVDKKVEPKSCDKTHTCPPCPAPEAAGGPSVFLFPPKPKDTLMISRTPEVTCVVVDVSHEDPEVKFNWYVDGVEVHNAKTKPREEQYNSTYRVVSVLTVLHQDWLNGKEYKCKVSNKALGAPIEKTISKAKGQPREPQVCTLPPSRDELTKNQVSLSCAVKGFYPSDIAVEWESNGQPENNYKTTPPVLDSDGSFFLVSKLTVDKSRWQQGNVFSCSVMHEALHNHYTQKSLSLSPGGGGGSGGGGSGGGGSGGGGSEIVLTQSPGTLSLSPGERATLSCRASQSVTSSYLAWYQQKPGQAPRLLINVGSRRATGIPDRFSGSGSGTDFTLTISRLEPEDFAVYYCQQGIMLPPTFGQGTKVEIK
notes: tetravalent for CD28, monovalent for FAP; also called Molecule D; FAP(4B9)-CD28(SA) 1+4
[2]
  binding result: binds
